{"source": "patent CN111484562A", "binders": {"B1": {"name": "CD22抗体 (scFv单链抗体, 抗CD22) (scFv)", "scFv": "DIVMTQSPSSLSASVGDRVTITCRASQSINNYLNWYQQKPGKAPKLLISAASSLQSGVPSRFSGSGSGTDFTLTISSLQPEDFATYYCQQSYTTPLTFGGGTKVEIRGSTSGSGKPGSGEGSTKGQVQLQQSGPGLVESSQILSLTCAISGDSVSSNSATWNWIRLSPSRGLEWLGRTYYRSTWYNDYPASVKGRIIIDPDTSKNQFSLLLSSVTPEDTAVYYCARELVPRGATIGFDYWGQGTLVTVSS"}}, "biological_target": "人CD22(hCD22)蛋白 (human) (UniProt P20273)", "sequence (P20273 20-687 limits assumed)": "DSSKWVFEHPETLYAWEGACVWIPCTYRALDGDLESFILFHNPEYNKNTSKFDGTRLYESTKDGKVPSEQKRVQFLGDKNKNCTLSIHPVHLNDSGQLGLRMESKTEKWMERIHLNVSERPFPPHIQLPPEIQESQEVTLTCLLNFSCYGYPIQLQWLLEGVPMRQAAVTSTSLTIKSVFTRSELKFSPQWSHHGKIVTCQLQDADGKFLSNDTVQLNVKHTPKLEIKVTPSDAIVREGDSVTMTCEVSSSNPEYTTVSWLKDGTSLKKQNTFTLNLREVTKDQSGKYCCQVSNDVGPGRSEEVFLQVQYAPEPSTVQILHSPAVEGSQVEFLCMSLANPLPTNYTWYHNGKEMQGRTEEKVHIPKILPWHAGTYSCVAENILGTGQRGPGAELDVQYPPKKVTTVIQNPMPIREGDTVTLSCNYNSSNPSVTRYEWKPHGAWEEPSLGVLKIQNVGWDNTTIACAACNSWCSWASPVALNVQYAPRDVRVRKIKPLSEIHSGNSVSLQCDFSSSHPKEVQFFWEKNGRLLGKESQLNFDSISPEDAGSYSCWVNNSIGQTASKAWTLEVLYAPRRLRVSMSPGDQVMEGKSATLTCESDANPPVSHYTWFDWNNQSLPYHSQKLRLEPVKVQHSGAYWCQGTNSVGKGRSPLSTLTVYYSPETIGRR", "test": "phage ELISA, 0.5 ug/ml hCD22 coated, phage supernatant, anti-M13-HRP", "data": [{"binder": "B1", "values": [{"measurement": "OD450", "result": "> 1.5", "unit": "OD450"}]}]}
